# Measured values published in PMC6008586, “Analysis of transition state mimicry by tight binding aminothiazoline inhibitors provides insight into catalysis by human O-GlcNAcase” (Chemical Science, 2016).
# B1: hOGA (Homo sapiens) (protein)
# chain: MVQKESQATLEERESELSSNPAASAGASLEPPAAPAPGEDNPAGAGGAAVAGAAGGARRFLCGVVEGFYGRPWVMEQRKELFRRLQKWELNTYLYAPKDDYKHRMFWREMYSVEEAEQLMTLISAAREYEIEFIYAISPGLDITFSNPKEVSTLKRKLDQVSQFGCRSFALLFDDIDHNMCAADKEVFSSFAHAQVSITNEIYQYLGEPETFLFCPTEYCGTFCYPNVSQSPYLRTVGEKLLPGIEVLWTGPKVVSKEIPVESIEEVSKIIKRAPVIWDNIHANDYDQKRLFLGPYKGRSTELIPRLKGVLTNPNCEFEANYVAIHTLATWYKSNMNGVRKDVVMTDSEDSTVSIQIKLENEGSDEDIETDVLYSPQMALKLALTEWLQEFGVPHQYSSRQVAHSGAKASVVDGTPLVAAPSLNATTVVTTVYQEPIMSQGAALSGEPTTLTKEEEKKQPDEEPMDMVVEKQEETDHKNDNQILSEIVEAKMAEELKPMDTDKESIAESKSPEMSMQEDCISDIAPMQTDEQTNKEQFVPGPNEKPLYTAEPVTLEDLQLLADLFYLPYEHGPKGAQMLREFQWLRANSSVVSVNCKGKDSEKIEEWRSRAAKFEEMCGLVMGMFTRLSNCANRTILYDMYSYVWDIKSIMSMVKSFVQWLGCRSHSSAQFLIGDQEPWAFRGGLAGEFQRLLPIDGANDLFFQPPPLTPTSKVYTIRPYFPKDEASVYKICREMYDDGVGLPFQSQPDLIGDKLVGGLLSLSLDYCFVLEDEDGICGYALGTVDVTPFIKKCKISWIPFMQEKYTKPNGDKELSEAEKIMLSFHEEQEVLPETFLANFPSLIKMDIHKKVTDPSVAKSMMACLLSSLKANGSRGAFCEVRPDDKRILEFYSKLGCFEIAKMEGFPKDVVILGRSL
# notes: made in house
# Experiments:
# Test in all cases: Kinetic analysis of hOGA-catalysed hydrolysis of fluorogenic substrates
# Assay type in all cases: biochemical, human
# [1] = substrate: CCCNC(=O)N[C@H]1[C@H](Oc2ccc3c(C)cc(=O)oc3c2)O[C@H](CO)[C@@H](O)[C@@H]1O; details: other: substrate of hOGA, pH 7.4 PBS, 2.5% DMF, 37.0 °C
# From the text: (§1) Given the greater than 100-fold increase in potency we observe for the 2′-aminothiazoline inhibitors over their thiazoline counterparts and their structural resemblance to the oxazoline intermediate found along the reaction coordinate of hOGA, we wanted to assess whether incorporation of the 2′-amino group benefitted binding through serendipitous interactions, or whether the presence of the charge included in this class of inhibitors also made them TS analogues. We therefore turned to using the Bartlett LFER approach. […] We started from 4-methylumbelliferyl 2-amino-2-deoxy-β-D-glucopyranoside hydrochloride (16) as a common intermediate.[54] Per-O-acetylated urea substrates 17a–e were prepared by reacting 16 with the appropriate alkylisocyanate in the presence of triethylamine, followed by Zemplen de-O-acetylation. With this series of substrates (18a–e) in hand we determined the kcat/Km values governing their hOGA catalyzed hydrolysis (ESI Table S1 ^†). […] In contrast, we find no correlation between log Ki values for the inhibitors and log Km values for the series of substrates (Fig. 6B). […]
# (§2) Biological evaluation: Gene expression and protein purification. hOGA was expressed and purified according to the previously described procedure by Macauley et al.[5] hOGA was dialyzed twice against PBS buffer after purification and its concentration determined using the Nanodrop2000. Human β-hexosaminidase was obtained from Micheal Tropak at the Hospital for Sick Children in Toronto, without further purification.
# (§3) Kinetic analysis of hOGA. All assays were carried out in 96 well plates (Thermoscientific, FloroNunc, lot # 139825) in PBS pH 7.4 buffer (0.03% BSA) in triplicate at 37°C for 20 minutes. A continuous assay procedure was performed in which the reactions were initiated by the addition of 4-MUGlcNAc substrate (50 µL or 100 µL via a multi-channel […]
# (§4) The excitation and emission were 350 and 445 nm, respectively. The amount of fluorogenic substrate liberated was quantitatively assessed by using a standard curve for 4-methylumbelliferone under identical buffer conditions. A total of 6-8 inhibitor concentrations were tested, […]
# (§5) The hOGA concentrations in the assays ranged from 0.8 nM to 20 nM, depending on whether the Ki being determined was through classic Michaelis-Menten methods or the Morrison Ki fit. For full Ki […]
# (§6) For the Morrison Ki analyses, only one substrate concentration was used (at the Km) since the method of inhibition was already known from analysis using the Line-weaver Burke plots. The representative hOGA Ki plots are summarized in Supplemental Figures S1, S2 and S3. Kinetic analysis of substrates 18a-e were performed in triplicate using pH 7.4 PBS buffer (0.03% BSA) containing 2.5% DMF, with varying enzyme concentrations. The Michaelis-Menten curves for substrates 18a-e with hOGA are summarized in Supplemental Figure S6 and the kinetic parameters are described in Supplemental Table S1. […]
# (§7) # 139825) at pH 4.25 (50 mM citrate, 100 mM NaCl, 0.03% BSA) at 37°C in triplicate for 20 minutes. Enzymatic reactions were triggered by addition of substrate (20 µL or 15 µL) in a total volume of 45 or 40 µL. Reactions were quenched by the addition of a 4-fold excess (160 or 180 µL) of quenching buffer (200 mM glycine, pH 10.75) in order to […]
# [2] = substrate: CNC(=O)N[C@H]1[C@H](Oc2ccc3c(C)cc(=O)oc3c2)O[C@H](CO)[C@@H](O)[C@@H]1O; details: other: estimated by non-linear regression, saturation of hOGA not observed, pH 7.4 PBS, 2.5% DMF, 37.0 °C
# From the text: as §1, §2, §3, §4, §5, §6, §7
# [3] = substrate: CCNC(=O)N[C@H]1[C@H](Oc2ccc3c(C)cc(=O)oc3c2)O[C@H](CO)[C@@H](O)[C@@H]1O; details: other: substrate of hOGA, pH 7.4 PBS, 2.5% DMF, 37.0 °C
# From the text: as §1, §2, §3, §4, §5, §6, §7
# [4] = substrate: Cc1cc(=O)oc2cc(O[C@@H]3O[C@H](CO)[C@@H](O)[C@H](O)[C@H]3NC(N)=O)ccc12; details: other: estimated by non-linear regression, saturation of hOGA not observed, pH 7.4 PBS, 2.5% DMF, 37.0 °C
# From the text: as §1, §2, §3, §4, §5, §6, §7
# [5] = substrate: CCCCNC(=O)N[C@H]1[C@H](Oc2ccc3c(C)cc(=O)oc3c2)O[C@H](CO)[C@@H](O)[C@@H]1O; details: other: substrate of hOGA, pH 7.4 PBS, 2.5% DMF, 37.0 °C
# From the text: as §1, §2, §3, §4, §5, §6, §7
protein,measurement,setting,value
B1,Km,[1],120 ± 11 µM
same,Km,[2],1825 ± 542 µM
same,Km,[3],85 ± 20 µM
same,Km,[4],1265 ± 259 µM
same,Km,[5],30 ± 3 µM
